Publication PMC5808563
Where two headings read alike, the source gives them in different places.

How the values were obtained:
[1] = target: integrin β3 transmembrane-cytoplasmic domain (TM/tail, residues 685-762) embedded in Nanodiscs (UniProt P05106); assay: FRET or BRET
[2] = target: integrin β3 transmembrane-cytoplasmic domain (TM/tail, residues 685-762) embedded in Nanodiscs (UniProt P05106); assay: FRET or BRET; remark: listed apart in the source

UniProt P05106, sequence (P05106 711-788): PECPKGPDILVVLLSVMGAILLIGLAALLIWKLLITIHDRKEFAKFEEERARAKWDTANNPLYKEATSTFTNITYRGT

- Kd [1]: 740 nM
- fold increase in affinity over 50% DMPS Nanodiscs without the integrin tail [1]: 2 fold
- Kd [2]: 580 nM
Substance: talin-1 head domain (THD) I398C, Uniblue A labelled (from UniProt P26039 1-433) (domain or fragment)
